Patent publication US20240226230A1 (MAYO FOUNDATION FOR MEDICAL EDUCATION AND RESEARCH, published 2024)
One block for each binder: values may come before it.

Key:
GFP-Nup98 = biological target: T1, GFP-Nup98 (UniProt P52948 1-880); test: co-localisation by immunofluorescence in HEK293T cells (FIG. 35)
T1 construct: Bought plasmid; not shown: GFP tag
T1 sequence (looked up): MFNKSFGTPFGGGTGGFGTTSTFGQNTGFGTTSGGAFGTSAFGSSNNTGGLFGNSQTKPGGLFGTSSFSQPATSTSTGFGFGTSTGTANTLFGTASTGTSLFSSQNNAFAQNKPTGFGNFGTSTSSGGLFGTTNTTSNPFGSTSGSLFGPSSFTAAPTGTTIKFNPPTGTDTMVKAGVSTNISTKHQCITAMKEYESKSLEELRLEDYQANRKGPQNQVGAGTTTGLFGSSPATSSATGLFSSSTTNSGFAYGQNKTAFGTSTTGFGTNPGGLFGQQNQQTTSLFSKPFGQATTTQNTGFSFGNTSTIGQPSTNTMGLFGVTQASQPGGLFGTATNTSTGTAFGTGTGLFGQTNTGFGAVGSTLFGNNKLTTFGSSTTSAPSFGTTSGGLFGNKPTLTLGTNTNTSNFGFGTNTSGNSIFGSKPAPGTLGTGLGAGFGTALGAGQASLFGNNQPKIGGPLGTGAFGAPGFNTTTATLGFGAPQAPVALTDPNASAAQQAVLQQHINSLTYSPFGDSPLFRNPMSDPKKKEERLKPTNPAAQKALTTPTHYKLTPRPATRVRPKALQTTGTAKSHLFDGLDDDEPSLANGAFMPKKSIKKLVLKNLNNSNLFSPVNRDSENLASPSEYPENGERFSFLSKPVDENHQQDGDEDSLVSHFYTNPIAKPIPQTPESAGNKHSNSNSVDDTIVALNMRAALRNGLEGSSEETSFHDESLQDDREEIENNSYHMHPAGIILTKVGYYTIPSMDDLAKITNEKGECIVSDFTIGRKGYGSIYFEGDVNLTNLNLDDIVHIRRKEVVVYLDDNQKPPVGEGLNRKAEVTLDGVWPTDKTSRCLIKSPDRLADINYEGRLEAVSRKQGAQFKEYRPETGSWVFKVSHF
Description: FIG. 35: Nup98 strongly associates with TDP-CTF^WT, but not TDP-CTF^VLIM-F and sTDP. […] Arrowheads point to co-aggregation. Hoechst staining was used to outline nuclei. Scale bar: 5 μm.

Nup62-mCherry = biological target: T2, Nup62-mCherry (UniProt P37198 1-522); test: co-localisation by fluorescence microscopy of co-transfected cells
T2 construct: mCherry replaced GFP in pNup62-EGFP3; also called mCherry-tagged Nup62; not shown: mCherry tag
T2 sequence: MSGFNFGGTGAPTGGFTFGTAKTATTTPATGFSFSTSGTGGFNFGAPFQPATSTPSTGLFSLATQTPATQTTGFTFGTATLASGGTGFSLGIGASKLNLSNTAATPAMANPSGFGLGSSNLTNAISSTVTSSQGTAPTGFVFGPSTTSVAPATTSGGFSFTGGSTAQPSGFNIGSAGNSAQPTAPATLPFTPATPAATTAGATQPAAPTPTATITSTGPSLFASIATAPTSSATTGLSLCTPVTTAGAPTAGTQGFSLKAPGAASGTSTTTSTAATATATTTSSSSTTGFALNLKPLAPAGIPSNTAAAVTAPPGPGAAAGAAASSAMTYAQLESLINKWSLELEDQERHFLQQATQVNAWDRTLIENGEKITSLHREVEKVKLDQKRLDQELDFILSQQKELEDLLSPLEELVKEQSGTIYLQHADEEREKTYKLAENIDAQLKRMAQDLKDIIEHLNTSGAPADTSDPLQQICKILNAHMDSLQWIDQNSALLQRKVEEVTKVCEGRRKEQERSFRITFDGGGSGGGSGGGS

endogenous Nup62 [1] = biological target: T3, endogenous Nup62 (human, UniProt P37198 2-522); test: co-localisation by immunofluorescence in HEK293T cells (not a direct binding assay)
T3 construct: Detected with anti-Nup62
T3 sequence (looked up): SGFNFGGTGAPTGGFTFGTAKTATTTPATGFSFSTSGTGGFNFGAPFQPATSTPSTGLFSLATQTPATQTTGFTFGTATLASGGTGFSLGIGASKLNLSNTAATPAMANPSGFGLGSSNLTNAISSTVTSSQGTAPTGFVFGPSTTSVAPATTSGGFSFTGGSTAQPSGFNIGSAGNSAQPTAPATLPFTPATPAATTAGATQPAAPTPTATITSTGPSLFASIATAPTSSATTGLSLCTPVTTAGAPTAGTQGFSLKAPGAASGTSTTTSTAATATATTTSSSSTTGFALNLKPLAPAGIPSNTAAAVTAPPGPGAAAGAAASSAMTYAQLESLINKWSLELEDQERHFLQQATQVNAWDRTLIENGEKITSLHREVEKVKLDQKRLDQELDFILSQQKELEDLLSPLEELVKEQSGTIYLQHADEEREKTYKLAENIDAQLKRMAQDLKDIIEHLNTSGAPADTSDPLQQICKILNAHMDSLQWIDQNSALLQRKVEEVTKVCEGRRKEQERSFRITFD
Description: (§1) FIGS. 31A-31C: The PrLD of TDP-43 interacts with FG-Nups and KPNB1. FIG. 31A) Immunofluorescence (IF) of HEK293T cells expressing GFP or GFP-TDP-PrLD and stained for endogenous Nup98 and Nup62. TDP-PrLD forms small cytoplasmic foci positive for Nup62. FIG. 31B) IF of HEK293T cells expressing GFP or GFP-TDP-PrLD and stained for endogenous KPNB1. KPNB1 colocalizes with TDP-PrLD foci in the cytoplasm. Hoechst staining was used to outline nuclei. Scale bar: 5 μm. FIG. 31C) Lysates from HEK293T cells expressing GFP or GFP-TDP-PrLD were subjected to immunoprecipitation with GFP-Trap magnetic beads. Whole cell lysates (input) and immunoprecipitates (IP) were subjected to western blot analysis using indicated antibodies. The PrLD of TDP-43 interacts with Nup62, Nup98 and KPNB1, but not with Ran.

endogenous KPNB1 = biological target: T4, endogenous KPNB1 (human, UniProt Q14974 1-876); test: as above
T4 construct: Endogenous protein detected with anti-KPNB1
Description: as §1

endogenous Ran = endogenous Ran (human, UniProt P62826 2-216); test: GFP-Trap IP from HEK293T lysates, western blot
Description: (§2) FIGS. 29A-29C: Untagged KPNB1 interacts with both the RRM2 and PrLD of TDP-CTF. FIG. 29A) (Left) Lysates from HEK293T cells expressing GFP alone, or untagged KPNB1 with GFP, GFP-TDP-CTF or GFP-TDP43^WT were subjected to immunoprecipitation with GFP-Trap magnetic beads. Whole cell lysates (input) and immunoprecipitates (IP) were subjected to western blot analysis using indicated antibodies. (Right) Quantification of relative KPNB1 levels in IP normalized by KPNB1 levels in input. Statistical analysis was performed using one-way ANOVA and Bonferroni's post hoc test (**p<0.01, ***p<0.001, n=3). […] FIG. 29C) (Left) Lysates from HEK293T cells expressing GFP alone, or untagged KPNB1 with GFP, GFP-TDP-CTF, GFP-TDP-CTF^non-PrLD or GFP-TDP-PrLD were subjected to immunoprecipitation with GFP-Trap magnetic beads. Whole cell lysates (input) and immunoprecipitates (IP) were subjected to western blot analysis using indicated antibodies. (Right) Quantification of relative KPNB1 levels in IP normalized by KPNB1 levels in input. Statistical analysis was performed using one-way ANOVA and Bonferroni's post hoc test (***p<0.001, n=3).
as §1
(§3) HEK293T cells were seeded in 6-well plates and transfected for 48 hours. Cells were then lysed in IP Lysis buffer (Fisher) supplemented with a protease inhibitor cocktail (Roche), and were centrifuged at 15000 rpm for 20 minutes at 4° C. A small aliquot of the recovered supernatant was set aside (input).

endogenous Nup98 = biological target: T5, endogenous Nup98 (human, UniProt P52948 1-880); test: GFP-Trap IP from HEK293T lysates, western blot
T5 sequence (looked up): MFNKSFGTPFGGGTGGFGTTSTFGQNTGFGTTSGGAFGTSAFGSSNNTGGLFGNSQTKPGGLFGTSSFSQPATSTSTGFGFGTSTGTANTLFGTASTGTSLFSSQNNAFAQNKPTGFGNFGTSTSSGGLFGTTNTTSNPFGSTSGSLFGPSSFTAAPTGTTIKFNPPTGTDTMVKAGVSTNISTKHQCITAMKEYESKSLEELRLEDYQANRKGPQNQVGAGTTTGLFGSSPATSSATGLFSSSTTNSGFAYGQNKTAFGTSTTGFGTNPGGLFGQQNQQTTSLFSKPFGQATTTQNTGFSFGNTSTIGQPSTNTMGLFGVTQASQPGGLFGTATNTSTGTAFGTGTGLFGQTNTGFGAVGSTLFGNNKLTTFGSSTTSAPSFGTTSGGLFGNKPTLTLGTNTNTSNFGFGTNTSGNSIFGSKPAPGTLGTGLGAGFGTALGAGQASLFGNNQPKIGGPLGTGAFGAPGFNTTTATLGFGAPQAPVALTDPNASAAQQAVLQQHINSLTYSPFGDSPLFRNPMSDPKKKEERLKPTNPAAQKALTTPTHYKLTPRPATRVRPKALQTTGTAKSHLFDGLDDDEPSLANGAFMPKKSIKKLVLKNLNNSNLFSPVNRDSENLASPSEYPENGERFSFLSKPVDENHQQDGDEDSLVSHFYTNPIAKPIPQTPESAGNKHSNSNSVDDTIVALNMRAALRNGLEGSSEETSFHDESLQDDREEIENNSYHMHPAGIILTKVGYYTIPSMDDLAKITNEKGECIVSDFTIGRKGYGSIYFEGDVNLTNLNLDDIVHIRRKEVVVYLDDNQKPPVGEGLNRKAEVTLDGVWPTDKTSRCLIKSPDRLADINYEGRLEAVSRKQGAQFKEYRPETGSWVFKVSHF
Description: as §2, §1, §3

Untagged KPNB1 = biological target: T6, Untagged KPNB1 (Homo sapiens (Human), UniProt Q14974 1-876); test: GFP-Trap IP from HEK293T lysates, western blot
T6 construct: KPNB1 amplified by PCR and cloned into pEGFP-C1 lacking the GFP tag; also called Wildtype KPNB1
Description: as §2, §1, §3

endogenous Nup62 [2] = biological target: T3, endogenous Nup62; test: co-IP, western blot
Description: RanGTP and importin-α interact with H1-8 and H8-19, respectively. FG-Nups bind to two regions of KPNB1, H5-7 and H14-16. FIG. 21B) Lysates from HEK293T cells expressing GFP, GFP-KPNB1 full-length (FL), N-terminal fragments of KPNB1 (H1-9 . . . H1) or the C-terminal fragment of KPNB1 (H10-19) were subjected to immunoprecipitation with GFP-Trap magnetic beads. Whole cell lysates (input) and immunoprecipitates (IP) were subjected to western blot analysis using indicated antibodies. KPNB1 H1-8, the smallest fully active KPNB1 fragment in reducing TDP-43 aggregation, strongly interacts with FG-Nups and Ran, and weakly with importin-al in comparison with full-length KPNB1. FIG. 21C) (Top) Schematic domain structure of KPNB1 H1-8^mNIS harboring four missense mutations (1178A, F217A, Y255A, I263R) in the nucleoporin-interacting site (NIS). (Bottom) Lysates from HEK293T cells expressing GFP, GFP-KPNB1 H1-8^WT or H1-8^mNIS were subjected to immunoprecipitation with GFP-Trap magnetic beads. Whole cell lysates (input) and immunoprecipitates (IP) were subjected to western blot analysis using indicated antibodies. […] Hoechst staining was used to outline nuclei. Scale bar: 5 μm. […] FIG. 21G) Quantification of the percentage of cells with cytoplasmic GR aggregates positive for endogenous TDP-43.

T6 sequence (Q14974 whole entry): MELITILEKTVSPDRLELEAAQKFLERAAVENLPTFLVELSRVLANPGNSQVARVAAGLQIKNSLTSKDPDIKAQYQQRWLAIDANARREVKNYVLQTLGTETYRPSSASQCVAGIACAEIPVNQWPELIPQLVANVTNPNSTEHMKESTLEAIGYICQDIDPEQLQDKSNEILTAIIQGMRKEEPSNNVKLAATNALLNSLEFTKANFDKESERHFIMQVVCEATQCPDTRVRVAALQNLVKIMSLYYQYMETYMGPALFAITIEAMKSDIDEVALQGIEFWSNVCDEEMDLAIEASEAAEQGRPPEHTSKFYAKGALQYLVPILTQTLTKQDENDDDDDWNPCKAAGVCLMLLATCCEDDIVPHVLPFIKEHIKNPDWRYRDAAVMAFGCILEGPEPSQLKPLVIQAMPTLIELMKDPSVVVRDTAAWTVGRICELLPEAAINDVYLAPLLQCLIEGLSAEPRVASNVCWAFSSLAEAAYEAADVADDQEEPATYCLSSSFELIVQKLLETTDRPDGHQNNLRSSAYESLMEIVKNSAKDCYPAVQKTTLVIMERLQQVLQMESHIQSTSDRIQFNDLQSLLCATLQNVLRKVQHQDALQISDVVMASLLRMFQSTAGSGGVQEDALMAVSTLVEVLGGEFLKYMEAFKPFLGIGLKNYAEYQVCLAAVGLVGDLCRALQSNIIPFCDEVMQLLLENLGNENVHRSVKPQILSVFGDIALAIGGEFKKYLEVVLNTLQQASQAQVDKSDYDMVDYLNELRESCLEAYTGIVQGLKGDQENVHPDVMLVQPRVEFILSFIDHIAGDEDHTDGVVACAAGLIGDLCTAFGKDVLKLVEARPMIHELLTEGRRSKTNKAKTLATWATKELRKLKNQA
T4 sequence (Q14974 whole entry): as above

- binding result (GFP-Nup98): no binding
B1: mCherry-TDP-CTF^VLIM-F (other)
chain: GGGSGGGSGGGSREFFSQYGDVMDVFIPKPFRAFAFVTFADDQIAQSLCGEDLIIKGISVHISNAEPKHNSNRQFERSGRFGGNPGGFGNQGGFGNSRGGGAGFGNNQGSNFGGGFNFGAFSFNPAMMAAAQAALQSSWGMMGMLASQQNQSGPSGNNQNQGNFQREPNQAFGSGNNSYSGSNSGAAFGWGSASNAGSGSGFNGGFGSSFDSKSSGWF
notes: also called mCherry-tagged TDP-CTF^VLIM-F; not shown: mCherry tag (mCherry-C1, Clontech)

- binding result (Nup62-mCherry): no binding
B2: GFP-TDP-43^mNLS 1-265 (other, human)
chain: GGGSGGGSGGGSMSEYIRVTEDENDEPIEIPSEDDGTVLLSTVTAQFPGACGLRYRNPVSQCMRGVRLVEGILHAPDAGWGNLVYVVNYPKDNAAAMDETDASSAVAVAAAVQKTSDLIVLGLPWKTTEQDLKEYFSTFGEVLMVQVKKDLKTGHSKGFGFVRFTEYETQVKVMSQRHMIDGRWCDCKLPNSKQSQDEPLRSRKVFVGRCTEDMTEDELREFFSQYGDVMDVFIPKPFRAFAFVTFADDQIAQSLCGEDLIIKGISVHISNAEPKHN
notes: not shown: GFP/EGFP tag (pEGFP-C1, Clontech)

- binding result (endogenous Nup62 [1]): binds
- binding result (endogenous KPNB1): binds
- binding result (endogenous Ran): no binding
- binding result (endogenous Nup98): binds
- binding result (Untagged KPNB1): binds
B3: GFP-TDP-PrLD (other, human)
chain: GGGSGGGSGGGSRFGGNPGGFGNQGGFGNSRGGGAGLGNNQGSNMGGGMNFGAFSINPAMMAAAQAALQSSWGMMGMLASQQNQSGPSGNNQNQGNMQREPNQAFGSGNNSYSGSNSGAAIGWGSASNAGSGSGFNGGFGSSMDSKSSGWGM
notes: also called GFP-TDP-43 PrLD; TDP-PrLD (aa275-414); not shown: GFP/EGFP tag (pEGFP-C1, Clontech)

- binding result (endogenous Nup62 [2]): no binding
B4: GFP-KPNB1 H1-8^mNIS (receptor)
chain: GGGSGGGSGGGSMELITILEKTVSPDRLELEAAQKFLERAAVENLPTFLVELSRVLANPGNSQVARVAAGLQIKNSLTSKDPDIKAQYQQRWLAIDANARREVKNYVLQTLGTETYRPSSASQCVAGIACAEIPVNQWPELIPQLVANVTNPNSTEHMKESTLEAIGYICQDIDPEQLQDKSNEILTAIAQGMRKEEPSNNVKLAATNALLNSLEFTKANFDKESERHAIMQVVCEATQCPDTRVRVAALQNLVKIMSLYYQYMETAMGPALFARTIEAMKSDIDEVALQGIEFWSNVCDEEMDLAIEASEAAEQGRPPEHTSKFYAKGALQYLVPILTQTLTKQDENDDDDDWNPCKAAGVCLMLLATCCED
notes: also called KPNB1-mNIS; not shown: GFP/EGFP tag (pEGFP-C1, Clontech)
